{
  "source": "the DeepSol protein solubility set",
  "data": [
    {"experiment": "soluble on expression in E. coli; label from the status in PepcDB or PDB records", "values": [
      {"sequence": "CNFRSTETIVNWVNDHFSKIFSQQVDIESGAVSFHPSVHVIEKNESSTIQAVQFKNREQEARHLIEIINSELNRNPEQTIAVLVRTRTQLPEIISLLRQNNIPYQGTDIDLLANLVHLRDVWSLAHALLFPGNRLSWLSILHSPYVGLGLSDIHCIAQYNSRKSIYHNLLHLDKIQDISEEGRIRANFFIQIMNQALLCRSHSRLSDWIADTLKNLHVEKILDKAQLNDLEQLWMLLDQYEKEGRIPDMNEFLNEFNKLYAQQTTPSRLQIMTIHKSKGLEFDTVILPGLGSQANRGESPMLRWLKLPTQDHGNLLLVSPIKSANQDNCPLYDYLDQLDEEKSAYEAQRLLYVAVTRAKSRLYLLDHSAKSYKSS", "soluble on expression in E. coli": "not soluble"},
      {"sequence": "MDNTNTGLKLFVLDTNILMHDPTAIYHFDEHDIYLPMVVLEELDSHKTGTSELARNVRQTNRMLVELMSNATHDQIVSGLPIPSYINSSNKKCSGRLFFQTDEFDQVVPSTLPGHKVDNTILATALGLQKKYYGKRQVIIISKDINLRIKAGILGIHAEDYYNDQVLDDVNLLHRGLHILDNNFWDSHAKDMGSWQESGKTFYKVSGPLVSQWNPNDCLSTEDDQFQALVKKIDGPNAVVQLIRDYTQPKHSVWGITARNREQNFSLNLLLDPDIDFVSLQGSAGTGKTLLTIAAGLTQVMDQNRYSEILMTRVTIPVGEDIGFLPGTEEEKMTPWMGALMDNLEVLHSSQVGGSFGRGATQDLLQNKIKIRSLNFMRGRTFLNRYIIIDEAQNLTSKQIKTLVTRAGPGSKIICLGDIKQIDTPYLTETTSGLTFAVDRFKSWEHSAHMTLTRGERSRLAFYAAEHL", "soluble on expression in E. coli": "not soluble"},
      {"sequence": "MGSDKIHHHHHHMAVQFELYKTPMPKEKKNKTRYHARPVSFETVNTEKLAYRIHDRSTLRVSDIISTLEELKNEVAQCLLEGKKVHVDGLGFFQVTLSCEEEIRNPKDKRVHRVKLKAIKFKADKELKGELCHMKFQRSKIRPHSANLSEVEIDMKLTEYFAENQIITRKDFQYLCGMTQITAYRHIKRLMAEKKLQNKGTIYQPIYTPVPGNYRVSVDLKYKEQ", "soluble on expression in E. coli": "not soluble"},
      {"sequence": "LLQLNIQNFAIVRSLDIDWQSGMTTITGETGAGKSIAIDALGLCLGDRATTNVVRPNCKKADLAATFEIKKNKMARAWLKQHELVSEHDSECILRRVISAEGRSKSYINGSQVPLVQLKEIGQLLINIHGQHDHQLIVKANQQCRLLDNYANHTPLLSAVKHYAQQWNKLNKELEMLQQSKQQREAEQQLIQYQVTELDEFSLQ", "soluble on expression in E. coli": "not soluble"},
      {"sequence": "MSQYNPTTADFEALLMQSFQTNDLNEGSVVKGRVIAIEKDMAIIDAGLKVEGRIPLKEFGAKGKDGSLQIGDEVEVYIERIENAMGEAVLSREKARREESWIRLEEKFNAGARVDGVIFSQVKGGFTVDLDGAVAFLPRSQVDIRPIRDVSPLMHNSQSFEILKMDRRRGNIVVSRRTVLEESRAEQRSEIVQNLEENQIVEGVVKNITDYGAFVDLGGIDGLLHVTDMAWRRVNHPSEILTIGQTIKVQIIRINQDTHRISLGMKQLESDPWESISARYPVGKKITGAVTNITDYGGFVEIEPGIEGLIHVSEMSWTKKNVHPGKILSTSQEVEVVILEIDPSKRRISLGLKQTFENPWVAFANKFPVNSQIEGEVKNKTEFGLFIGLEGDVDGMVHLSDLDWNRPGEQVIDTYNKGDIVKAVVLDVDIEKERISLGIKQLSSDKVGEAAASGELRKGAVVTCEVTAVNDNGIDVKLTDHNLETTIRRTDLARDRDEQRPERFSIGQRVDARITAFDKKTRKLSVSIKALEIAEEKEAVAQYGSTDSGASLGDILGAALKKQEQDLEHHHHHH", "soluble on expression in E. coli": "soluble"},
      {"sequence": "MGSDKIHHHHHHMPLLLKGSCRCNAVRFEVESHTPVPFMLCYCSICRKQQGGGGFAINLGAAYETLNIRGKRSLGVYRAEIEDDEHPHCEVSTGERNFCRKCGSALWLYDPTWPELVHPFASAIDSDLPKPPSRVHLMLKYKANWVEPVIGKGDKTFDVYPEESIADWHKLTGMWVD", "soluble on expression in E. coli": "not soluble"},
      {"sequence": "MNLASQISQAKTGNATMEWAKNYVSKLNDGQLALLQKMYADHQAKLKASEDEKKKKEMEELKMKAQQQAILDSLTQQIPIMVDVLRSSTSPDSQPSSSSSVMSSTDEDQITVKDVLIGKINKAQRQSSPNSSKPYTPRGIRERVLFDEHLYVFDKCSYDSKKRFFRCERKNTCPARIHTPFDAERVIHKVQVHNHPPPTTFDLAHYNIDYGKVKSGHILSLNGPQQTKNLLPPSLLTPKSDLEDETLSTKTEQKNASTMNILLSMTNNCDGRKPITLRLPDLFNKISEMEIHDMEMTLTKFLLENRELRTDLISRNGDLPVFFPNAHNDELVLFVADQHENDSVFQMIRVSERNEKSIRQAIQEHLQKVSNRSLMMNISSKINVPLSQQMIDQWRTEEFIRLDSSKPNFWKIHHVSKLQD", "soluble on expression in E. coli": "not soluble"},
      {"sequence": "MSKSALDPVEFLKGALEIPSPSGKERAVAEYLAEGMQKLGLKGFVDEADNARGQVGEGPVQVVLLGHIDTVPGQIPVRLEGGRLFGRGAVDAKGPFVAMIFAAAGLSEEARRRLTVHLVGATEEEAPSSKGARFVAPRLKPHYAVIGEPSGWEGITLGYKGRLLVKARREKDHFHSAHHEPNAAEELISYFVAIKAWAEAMNVGQRPFDQVQYTLRDFRVHPAELRQVAEMFFDLRLPPRLPPEEAIRHLTAYAPPTIELEFFGREVPYQGPKDTPLTRAFRQAIRKAGGRPVFKLKTGTSDMNVLAPHWPVPMVAYGPGDSTLDHTPYEHVEVAEFLKGIEVLRGALEALAQTHAGEKEG", "soluble on expression in E. coli": "soluble"},
      {"sequence": "MYKTIIMPVDVFEMALSDKAVRHAEFLAQQDGVIHLLHVLPGSASFTMSRFTADLRRFEEHLQHEAETRLQTMVSHFSIDPSRIKLHVRFGSVRDMVNELASEINADVVVIGSRNPSISTHLLGSNASSVIRHAHIPVMVVR", "soluble on expression in E. coli": "not soluble"},
      {"sequence": "VDYTLRRRSLLAEVYSGRTGVSEVCDANPYLLRAAKFHGKPSRVICPICRKEQLTLVSWVFGEHLGAVSGSARTAEELILLATRFSEFAVHVVEVCRTCSWNHLVKSYVLGAARPARPPRGSGGTRTARNGARTASE", "soluble on expression in E. coli": "not soluble"},
      {"sequence": "MSLSIPTIKQVRAFVLRGGGADYHDQGDGHWIDDHISTPMGKYPEYRQSRRSFGINVLGTLVVEIEASDGNVGFAVTTGGEPAAYIVEKHLARFLEGARVTDIERIWDQMYNSTLYYGRKGLVINTISGVDLALWDLLGKVRREPVHQLLGGAVRDELQFYATGARPDLAQKMGFIGGKMPLHHGPSEGEEGLKKNLEELATMRERVGPDFWLMFDCWMSLDLNYATRLARGAREYGLKWIEEALPPDDYWGYAELRRNAPTGMMVTTGEHEATRWGFRMLLEMGCCDIIQPDVGWCGGVTELLKISALADAHNALVVPHGSSVYSYHFVATRQNSPFAEFLMMAPKADQVVPMFHPQLLGEPVPENGRMRLSRLDQPGFGVTLNPECQLHRPYTHEGHHHHHH", "soluble on expression in E. coli": "soluble"},
      {"sequence": "MEALEEYTPTLLGEVAATLRGENELWLGLALISGKFNDLEPEQLAAAASALITETPRSDAWTDFKPSPVVLAALRPSNDLFGLLFCLKHPQPPLALWQAMTVADHLQRLNLWDLRRKLIKAQNQRAIAIPLWLEVDFMGLVEQWALGMEWENLCRQTSLDEGDLVRLFRRTVDLLWQIPQVPHLSPRLKRNARIAVQQMKRFPLLEHHHHHH", "soluble on expression in E. coli": "not soluble"},
      {"sequence": "MKKLQIAVGIIRNENNEIFITRRAADAHMANKLEFPGGKIEMGETPEQAVVRELQEEVGITPQHFSLFEKLEYEFPDRHITLWFWLVERWEGEPWGKEGQPGEWMSLVGLNADDFPPANEPVIAKLKRL", "soluble on expression in E. coli": "soluble"},
      {"sequence": "MLQCIFLISDSGEVMLEKQLTGHRVDRSICAWFWDQYISQGDSFKALPVIASPTHYLFQIVRDGITFLACSQVEMPPLMAIEFLCRVADVLSEYLGGLNEDLIKDNFIIVYELLDEMIDNGFPLTTEPSILKEMIAPPNLVSKMLSVVTGNASNVSDTLPSGAGSCVPWRPTDPKYSSNEVYVDLVEEMDAIVNRDGELVKCEIYGEVQMNSQLTGFPDLTLSFANPSILEDMRFHPCVRYRPWESHQVLSFVPPDGEFKLMSYRVKKLKNTPVYVKPQITSDSGTCRISVLVGIRSDPGKTIESITLSFQLPHCVSSADLSSNHGTVTILSNKTCTWTIGRIPKDKTPCLSGTLALEPGLERLHVFPTFKLGFKIMGIALSGLRIEKLDLQTIPPRLYKGFRAQTRAGEFDVRL", "soluble on expression in E. coli": "soluble"},
      {"sequence": "MKLLTSPFQGLKWLAPLLADDGSLHIPPQDLIQHKGISSWEVKVIVTRIDFLADQVTGTAIHQLTIDPARPFSGTEVPINITGEGTLLVTMQITAMSEDRPYCNRQYLAADIIAVVPPGVQNKVHNITHPAAPTIQHLSVGGGYTPIRQLVVQRE", "soluble on expression in E. coli": "not soluble"},
      {"sequence": "MKLTIHEIAQVVGAKNDISIFEDTQLEKAEFDSRLIGTGDLFVPLKGARDGHDFIETAFENGAAVTLSEKEVSNHPYILVDDVLTAFQSLASYYLEKTTVDVFAVTGSNGKTTTKDMLAHLLSTRYKTYKTQGNYNNEIGLPYTVLHMPEGTEKLVLEMGQDHLGDIHLLSELARPKTAIVTLVGEAHLAFFKDRSEIAKGKMQIADGMASGSLLLAPADPIVEDYLPIDKKVVRFGQGAELEITDLVERKDSLTFKANFLEQALDLPVTGKYNATNAMIASYVALQEGVSEEQIRLAFQHLELTRNRTEWKKAANGADILSDVYNANPTAMKLILETFSAIPANEGGKKIAVLADMKELGDQSVQLHNQMILSLSPDVLDIVIFYGEDIAQLAQLASQMFPIGHVYYFKKTEDQDQFEDLVKQVKESLGAHDQILLKGSNSMNLAKLVESLEN", "soluble on expression in E. coli": "soluble"},
      {"sequence": "SVCAEAYNPDEEEDDAESRIIHPKTDDQRNRLQEACKDILLFKNLDPEQMSQVLDAMFEKLVKEGEHVIDQGDDGDNFYVIDRGTFDIYVKCDGVGRCVGNYDNRGSFGELALMYNTPRAATITATSPGALWGLDRVTFRRIIVKNNAKKRKMYESFIESLPFLKSLEVSERLKVVDVIGTKVYNDGEQIIAQGDSADSFFIVESGEVRITMKRKGKSDIEENGAVEIARCLRGQYFGELALVTNKPRAASAHAIGTVKCLAMDVQAFERLLGPCMEIMKRNIATYEEQLVALFGTNMDIVEPTA", "soluble on expression in E. coli": "soluble"},
      {"sequence": "MASLLFRQARVFDGESVHTDYDVLVVDGKIAQLGSAIEAPADAEIIEAHGKTLLPGLIDSHTHAKPPALEMALTFGVTTELDMFSDPAWMTEQRREAQTRNSMADVRSAMTGASVAGGHPTGLVGVVFDKQCPVLENAEDAEAFVAARVAEGADYFKLVIEDGTILGHEVPRLSDEMVYALVAAAHAQGLMAVAHAMTVELALLAIRAGVDGLMHVAGDRLMTDEEVAEVAQSGIFVVPTLSTMASVYGDKHGQHLAEDDRTRPLLSDAWAENLCQCWHLTNPGSTANVIDATRRLYEAGVDVLAGSDAVTVGVPGTAHGVSMHGELELLVDCGLSPAAALRAATLLPAKRFSLDDRGRIAPGLQADLVLVDGDPTTDVRQTLSIEGVWRRGEQAPRIGQAEGVGTASAASAVAG", "soluble on expression in E. coli": "soluble"},
      {"sequence": "MDRKTRLSEPPTLALRLKPYKTAIQQLRSVIRALKENTTVTFLPTPSLILQTVRSHCVSKITFNSSCLYITDKSFQPKTINNSTPLLGNFMYLTSSKDLTKFYVQDISDLSAKISMCAPDFNMEFSSACVHGQDIVRESENSAVHVDLDFGVVADLLKWIGPHTRVKRNVKKAPCPTGTVQILVHAGPPAIKFILTNGSELEFTSNNRVSFHGVKNMRINVQLKNFYQTLLNCAVTKLPCTLRIVTEHDTLLYVASRNGLFAVENFLTEEPFQRGDPFDKNYVGNSGKSR", "soluble on expression in E. coli": "soluble"}
    ]}
  ]
}
